According to US20060177826A1 (SERUM BIOMEDICAL INSTITUTE, published 2006):

Target: T1, human beta-FSH subunit (SDK-X1X2 expression product) (human, UniProt P01225 19-129)
T1 construct: Expressed from pTPKBFSH in co-transfected COS-7L and CHO-S cells and tested as secreted protein in the culture supernatant; also called β subunit of human FSH
Test: FSH-IRMA sandwich immunoradiometric assay (one mAb for the alpha subunit, one for the beta subunit) on supernatant of co-transfected cells; detects only the complete alpha and beta complex
Experimental: Following transfection, the cells were cultured in a selective medium containing 1000 μg/ml Geneticine and 400 μg/ml Blasticidin for 7 days. Geneticine-Blasticidine-resistant cells were transferred in a new culture medium containing Geneticine (200 μg/ml) and Blasticidin (200 μg/mL), and cultured to a cell density of 10⁶ cells/ml. The supernatant of this culture was than tested for the presence of the multisubunit (alpha subunit and beta subunit non-covalently associated) FSH complex.
The presence of the alpha and beta FSH complex was detected using the BIOSOURCE FSH-IRMA Kit (Biosource Europe S.A., Cat # KIP0841-KIP0844), an immunoradiometric assay kit for the quantitation of Follicle Stimulating Hormone (FSH). This FSH-IRMA assay is based on the use of two monoclonal antibodies, one specific for the alpha subunit of FSH and one for the beta subunit of FSH. Thus this assay only detects the complete alpha and beta FSH complex. The supernatant of pLenti6/V5-glycalA and the pTPKBFSH co-transfected cells was tested using the FSH-IRMA kit according to manufacturer's instructions.

T1 sequence (P01225 19-129 limits assumed): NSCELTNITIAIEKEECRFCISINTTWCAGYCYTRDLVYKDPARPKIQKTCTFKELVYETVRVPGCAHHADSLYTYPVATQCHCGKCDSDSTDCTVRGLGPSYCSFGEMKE

binding result: binds
B1: human alpha-FSH subunit (glycalA expression product) (ligand)
chain: not shown
notes: Expressed from pLenti6/V5-glycalA in co-transfected COS-7L and CHO-S cells and tested as secreted protein in the culture supernatant; also called alpha subunit of FSH
